Experimental data as given in patent US10766960 (dated 2020).

T1: FcgRIIa R (human, UniProt P12318)
T1 chain: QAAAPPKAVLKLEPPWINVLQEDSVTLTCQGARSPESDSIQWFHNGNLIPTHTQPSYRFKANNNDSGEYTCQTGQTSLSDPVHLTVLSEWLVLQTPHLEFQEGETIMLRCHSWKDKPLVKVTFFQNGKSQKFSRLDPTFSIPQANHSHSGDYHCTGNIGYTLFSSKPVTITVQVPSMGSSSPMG

T2: FcgRIa (human, UniProt P12314)
T2 chain: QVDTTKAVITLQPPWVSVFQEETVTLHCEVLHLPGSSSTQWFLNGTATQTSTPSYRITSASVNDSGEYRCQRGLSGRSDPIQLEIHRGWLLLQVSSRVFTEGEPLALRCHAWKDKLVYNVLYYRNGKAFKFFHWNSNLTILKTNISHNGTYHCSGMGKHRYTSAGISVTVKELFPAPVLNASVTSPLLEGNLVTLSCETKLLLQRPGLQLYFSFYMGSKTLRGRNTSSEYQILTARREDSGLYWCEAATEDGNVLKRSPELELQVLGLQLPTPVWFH

T3: FcgRIIb (human, UniProt P31994)
T3 chain: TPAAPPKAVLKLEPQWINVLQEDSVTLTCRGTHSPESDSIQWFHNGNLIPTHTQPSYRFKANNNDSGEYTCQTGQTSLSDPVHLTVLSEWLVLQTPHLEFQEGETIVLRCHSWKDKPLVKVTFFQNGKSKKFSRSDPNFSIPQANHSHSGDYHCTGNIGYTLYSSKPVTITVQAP

T4: FcgRIIa H (human, UniProt P12318)
T4 chain: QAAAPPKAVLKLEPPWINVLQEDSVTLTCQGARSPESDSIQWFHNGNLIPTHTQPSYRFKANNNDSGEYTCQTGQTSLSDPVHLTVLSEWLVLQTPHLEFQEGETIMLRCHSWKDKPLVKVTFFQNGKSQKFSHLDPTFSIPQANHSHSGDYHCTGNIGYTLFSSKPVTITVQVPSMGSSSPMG


Assays:
Assay in all cases: SPR
FcgRIIa R = target: T1, FcgRIIa R
FcgRIa = target: T2, FcgRIa
FcgRIIb = target: T3, FcgRIIb
FcgRIIa H = target: T4, FcgRIIa H
FcgRIIIa F = FcgRIIIa F (human, UniProt P08637)
Chain of FcgRIIIa F (P08637 17-208): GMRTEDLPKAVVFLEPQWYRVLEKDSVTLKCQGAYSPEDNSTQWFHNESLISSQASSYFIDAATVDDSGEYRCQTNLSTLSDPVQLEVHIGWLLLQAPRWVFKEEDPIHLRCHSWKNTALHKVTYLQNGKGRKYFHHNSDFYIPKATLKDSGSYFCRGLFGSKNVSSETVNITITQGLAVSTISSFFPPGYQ

FcgRIIIa V = FcgRIIIa V (human, UniProt P08637)
Chain of FcgRIIIa V (P08637 17-208 F176V): as the sequence (P08637 17-208) above, with F160V counted along it

Kd (FcgRIIa R) [nM]	Kd (FcgRIa) [nM]	Kd (FcgRIIb) [nM]	Kd (FcgRIIa H) [nM]	Kd (FcgRIIIa F) [nM]	Kd (FcgRIIIa V) [nM]	Binder
430	0.069	7200	110	3.2	0.49	H240-Kn201/H240-Hl210/L73-k0 (antibody) chain 1: QDQLVQSGAEVKKPGASVKVSCKASGFNIKDTYIQWVRQAPGQGLEWMGRIDPLRKQTKYREKFEGRVTITADTSTNTAYMELSSLRSEDTAVYYCVRSGREFDYWGQGTLVTVSSASTKGPSVFPLAPSSKSTSGGTAALGCLVKDYFPEPVTVSWNSGALTSGVHTFPAVLQSSGLYSLSSVVTVPSSSLGTQTYICNVNHKPSNTKVDKKVEPKSCDKTHTCPPCPAPEFQWGPMVFLFPPKPKDTLMISRTPEVTCVVVDVSDEEPEVKFNWYVDGVEVHNAKTKPREEQYNATYRVVSVLTVLHQDWLNGKEYKCKVSNKALPAPIEKTISKAKGQPREPQVCTLPPSRDELTKNQVSLWCLVKGFYPSDIAVEWESNGQPENNYKTTPPVLDSDGSFFLYSKLTVDKSRWQQGNVFSCSVMHEALHNHYTQKSLSLSP chain 2: QDQLVQSGAEVKKPGASVKVSCKASGFNIKDTYIQWVRQAPGQGLEWMGRIDPLRKQTKYREKFEGRVTITADTSTNTAYMELSSLRSEDTAVYYCVRSGREFDYWGQGTLVTVSSASTKGPSVFPLAPSSKSTSGGTAALGCLVKDYFPEPVTVSWNSGALTSGVHTFPAVLQSSGLYSLSSVVTVPSSSLGTQTYICNVNHKPSNTKVDKKVEPKSCDKTHTCPPCPAPELLGGPSVFLFPPKPKDTLMISRTPEVTCVVVDVSHEEPEVKFNWYVDGVEVHNAKTKPREEQYNSTYRVVSVLTVLHQDWLNGKEYKCKVSNDALPAPIEETISKAKGQPREPQVYTLPPSRCELTKNQVSLSCAVKGFYPSDIAVEWESNGQPENNYKTTPPVLDSDGSFFLVSKLTVDKSRWQQGNVFSCSVMHEALHNHYTQKSLSLSP chain 3: DIQMTQSPSSLSASVGDRVTITCRASQDIHKYIAWYQQKPGQAPRLLIQYTSTLQPGVPSRFSGSGSGTDYTFTISSLQPEDIATYYCLQYEQLRTFGGGTKVEIKRTVAAPSVFIFPPSDEQLKSGTASVVCLLNNFYPREAKVQWKVDNALQSGNSQESVTEQDSKDSTYSLSSTLTLSKADYEKHKVYACEVTHQGLSSPVTKSFNRGEC
21	0.18	210	66	2.5	0.75	H240-Kn233/H240-Hl068/L73-k0 (antibody) chain 1: QDQLVQSGAEVKKPGASVKVSCKASGFNIKDTYIQWVRQAPGQGLEWMGRIDPLRKQTKYREKFEGRVTITADTSTNTAYMELSSLRSEDTAVYYCVRSGREFDYWGQGTLVTVSSASTKGPSVFPLAPSSKSTSGGTAALGCLVKDYFPEPVTVSWNSGALTSGVHTFPAVLQSSGLYSLSSVVTVPSSSLGTQTYICNVNHKPSNTKVDKKVEPKSCDKTHTCPPCPAPEEYWGPIVFLFPPKPKDTLMISRTPEVTCVVVDVSDEDPEVKFNWYVDGVEVHNAKTKPREEQYNATYRVVSVLTVLHQDWLNGKEYKCKVSNKDLPAPIEKTISKAKGQPREPQVCTLPPSRDELTKNQVSLWCLVKGFYPSDIAVEWESNGQPENNYKTTPPVLDSDGSFFLYSKLTVDKSRWQQGNVFSCSVMHEALHNHYTQKSLSLSP chain 2: QDQLVQSGAEVKKPGASVKVSCKASGFNIKDTYIQWVRQAPGQGLEWMGRIDPLRKQTKYREKFEGRVTITADTSTNTAYMELSSLRSEDTAVYYCVRSGREFDYWGQGTLVTVSSASTKGPSVFPLAPSSKSTSGGTAALGCLVKDYFPEPVTVSWNSGALTSGVHTFPAVLQSSGLYSLSSVVTVPSSSLGTQTYICNVNHKPSNTKVDKKVEPKSCDKTHTCPPCPAPELLGGPSVFLFPPKPKDTLMISRTPEVTCVVVDVSHEEPEVKFNWYVDGVEVHNAKTKPREEQYNSTYRVVSVLTVLHQDWLNGKEYKCKVSNDALPKPIEETISKAKGQPREPQVYTLPPSRCELTKNQVSLSCAVKGFYPSDIAVEWESNGQPENNYKTTPPVLDSDGSFFLVSKLTVDKSRWQQGNVFSCSVMHEALHNHYTQKSLSLSP chain 3: DIQMTQSPSSLSASVGDRVTITCRASQDIHKYIAWYQQKPGQAPRLLIQYTSTLQPGVPSRFSGSGSGTDYTFTISSLQPEDIATYYCLQYEQLRTFGGGTKVEIKRTVAAPSVFIFPPSDEQLKSGTASVVCLLNNFYPREAKVQWKVDNALQSGNSQESVTEQDSKDSTYSLSSTLTLSKADYEKHKVYACEVTHQGLSSPVTKSFNRGEC
200	0.4	1400	120	2.5	0.66	H240-Kn202/H240-Hl068/L73-k0 (antibody) chain 1: QDQLVQSGAEVKKPGASVKVSCKASGFNIKDTYIQWVRQAPGQGLEWMGRIDPLRKQTKYREKFEGRVTITADTSTNTAYMELSSLRSEDTAVYYCVRSGREFDYWGQGTLVTVSSASTKGPSVFPLAPSSKSTSGGTAALGCLVKDYFPEPVTVSWNSGALTSGVHTFPAVLQSSGLYSLSSVVTVPSSSLGTQTYICNVNHKPSNTKVDKKVEPKSCDKTHTCPPCPAPEEQWGPMVFLFPPKPKDTLMISRTPEVTCVVVDVSDEEPEVKFNWYVDGVEVHNAKTKPREEQYNATYRVVSVLTVLHQDWLNGKEYKCKVSNKALPAPIEKTISKAKGQPREPQVCTLPPSRDELTKNQVSLWCLVKGFYPSDIAVEWESNGQPENNYKTTPPVLDSDGSFFLYSKLTVDKSRWQQGNVFSCSVMHEALHNHYTQKSLSLSP chain 2: QDQLVQSGAEVKKPGASVKVSCKASGFNIKDTYIQWVRQAPGQGLEWMGRIDPLRKQTKYREKFEGRVTITADTSTNTAYMELSSLRSEDTAVYYCVRSGREFDYWGQGTLVTVSSASTKGPSVFPLAPSSKSTSGGTAALGCLVKDYFPEPVTVSWNSGALTSGVHTFPAVLQSSGLYSLSSVVTVPSSSLGTQTYICNVNHKPSNTKVDKKVEPKSCDKTHTCPPCPAPELLGGPSVFLFPPKPKDTLMISRTPEVTCVVVDVSHEEPEVKFNWYVDGVEVHNAKTKPREEQYNSTYRVVSVLTVLHQDWLNGKEYKCKVSNDALPKPIEETISKAKGQPREPQVYTLPPSRCELTKNQVSLSCAVKGFYPSDIAVEWESNGQPENNYKTTPPVLDSDGSFFLVSKLTVDKSRWQQGNVFSCSVMHEALHNHYTQKSLSLSP chain 3: DIQMTQSPSSLSASVGDRVTITCRASQDIHKYIAWYQQKPGQAPRLLIQYTSTLQPGVPSRFSGSGSGTDYTFTISSLQPEDIATYYCLQYEQLRTFGGGTKVEIKRTVAAPSVFIFPPSDEQLKSGTASVVCLLNNFYPREAKVQWKVDNALQSGNSQESVTEQDSKDSTYSLSSTLTLSKADYEKHKVYACEVTHQGLSSPVTKSFNRGEC
310	0.11	3100	120	3.7	0.85	H240-Kn226/H240-Hl210/L73-k0 (antibody) chain 1: QDQLVQSGAEVKKPGASVKVSCKASGFNIKDTYIQWVRQAPGQGLEWMGRIDPLRKQTKYREKFEGRVTITADTSTNTAYMELSSLRSEDTAVYYCVRSGREFDYWGQGTLVTVSSASTKGPSVFPLAPSSKSTSGGTAALGCLVKDYFPEPVTVSWNSGALTSGVHTFPAVLQSSGLYSLSSVVTVPSSSLGTQTYICNVNHKPSNTKVDKKVEPKSCDKTHTCPPCPAPEFQWGPIVFLFPPKPKDTLMISRTPEVTCVVVDVSDEEPEVKFNWYVDGVEVHNAKTKPREEQYNATYRVVSVLTVLHQDWLNGKEYKCKVSNKALPAPIEKTISKAKGQPREPQVCTLPPSRDELTKNQVSLWCLVKGFYPSDIAVEWESNGQPENNYKTTPPVLDSDGSFFLYSKLTVDKSRWQQGNVFSCSVMHEALHNHYTQKSLSLSP chain 2: QDQLVQSGAEVKKPGASVKVSCKASGFNIKDTYIQWVRQAPGQGLEWMGRIDPLRKQTKYREKFEGRVTITADTSTNTAYMELSSLRSEDTAVYYCVRSGREFDYWGQGTLVTVSSASTKGPSVFPLAPSSKSTSGGTAALGCLVKDYFPEPVTVSWNSGALTSGVHTFPAVLQSSGLYSLSSVVTVPSSSLGTQTYICNVNHKPSNTKVDKKVEPKSCDKTHTCPPCPAPELLGGPSVFLFPPKPKDTLMISRTPEVTCVVVDVSHEEPEVKFNWYVDGVEVHNAKTKPREEQYNSTYRVVSVLTVLHQDWLNGKEYKCKVSNDALPAPIEETISKAKGQPREPQVYTLPPSRCELTKNQVSLSCAVKGFYPSDIAVEWESNGQPENNYKTTPPVLDSDGSFFLVSKLTVDKSRWQQGNVFSCSVMHEALHNHYTQKSLSLSP chain 3: DIQMTQSPSSLSASVGDRVTITCRASQDIHKYIAWYQQKPGQAPRLLIQYTSTLQPGVPSRFSGSGSGTDYTFTISSLQPEDIATYYCLQYEQLRTFGGGTKVEIKRTVAAPSVFIFPPSDEQLKSGTASVVCLLNNFYPREAKVQWKVDNALQSGNSQESVTEQDSKDSTYSLSSTLTLSKADYEKHKVYACEVTHQGLSSPVTKSFNRGEC
